Measurements as given in patent US20240197902A1 (ACCELERON PHARMA, published 2024).
Where a chain is given by its changes, count along the chain named. Numbers in names are those of the source. Blank lines part the entries; values can stand above or below the binder they belong to.

Assays:
GDF11 [1] = target: T1, GDF11 (UniProt O95390 299-407); assay: not described
T1 construct: also called BMP11
T1 sequence (looked up): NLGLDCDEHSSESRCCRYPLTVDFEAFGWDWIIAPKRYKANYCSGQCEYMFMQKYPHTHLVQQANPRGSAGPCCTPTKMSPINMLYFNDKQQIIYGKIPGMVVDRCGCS

BMP5 = target: T2, BMP5 (UniProt P22003 317-454, limits assumed); assay: SPR (Biacore), Fc fusion captured by anti-Fc antibody
T2 sequence (looked up): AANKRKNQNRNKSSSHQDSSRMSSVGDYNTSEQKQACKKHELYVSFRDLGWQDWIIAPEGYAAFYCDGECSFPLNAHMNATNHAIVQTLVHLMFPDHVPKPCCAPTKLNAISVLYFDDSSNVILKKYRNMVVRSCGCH

BMP6 [2] = target: T3, BMP6 (UniProt P22004 375-513, limits assumed); assay: as above
T3 sequence (looked up): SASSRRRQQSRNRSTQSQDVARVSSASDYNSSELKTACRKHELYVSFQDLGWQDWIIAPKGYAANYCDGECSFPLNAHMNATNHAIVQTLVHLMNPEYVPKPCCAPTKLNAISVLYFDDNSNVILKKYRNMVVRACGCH

BMP10 [3] = target: T4, BMP10 (UniProt O95393 317-424); assay: as above
T4 sequence (looked up): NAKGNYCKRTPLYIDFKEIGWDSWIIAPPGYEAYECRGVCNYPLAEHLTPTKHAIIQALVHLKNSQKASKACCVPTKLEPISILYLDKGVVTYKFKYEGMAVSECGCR

GDF11 [4] = target: T1, GDF11; assay: as above
GDF8 [5] = target: T5, GDF8 (UniProt O14793 267-375); assay: as above
T5 construct: also called myostatin
T5 sequence (looked up): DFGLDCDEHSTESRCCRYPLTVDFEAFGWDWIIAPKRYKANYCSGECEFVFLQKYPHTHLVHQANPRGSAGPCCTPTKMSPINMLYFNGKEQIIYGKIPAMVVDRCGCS

activin A [6] = target: T6, activin A (UniProt P08476 311-426); assay: as above
T6 sequence (looked up): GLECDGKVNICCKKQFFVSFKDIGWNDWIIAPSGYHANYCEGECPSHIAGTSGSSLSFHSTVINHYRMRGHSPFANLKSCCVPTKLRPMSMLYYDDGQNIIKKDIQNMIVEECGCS

activin B [7] = target: T7, activin B (UniProt P09529 293-407); assay: as above
T7 sequence (looked up): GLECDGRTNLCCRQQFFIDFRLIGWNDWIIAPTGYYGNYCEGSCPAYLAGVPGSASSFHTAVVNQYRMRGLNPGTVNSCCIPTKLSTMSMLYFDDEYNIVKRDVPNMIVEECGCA

GDF3 [8] = target: T8, GDF3 (UniProt Q9NR23 251-364); assay: as above
T8 sequence (looked up): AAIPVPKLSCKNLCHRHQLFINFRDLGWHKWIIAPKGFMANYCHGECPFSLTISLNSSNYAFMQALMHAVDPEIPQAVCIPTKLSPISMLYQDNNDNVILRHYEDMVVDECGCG

activin AC = target: T9, activin AC (UniProt P08476 311-426; P55103 237-352); assay: as above
T9 construct: Heterodimer of beta A and beta C subunits
T9 sequence (looked up) 1: T6 sequence (looked up)
T9 sequence (looked up) 2: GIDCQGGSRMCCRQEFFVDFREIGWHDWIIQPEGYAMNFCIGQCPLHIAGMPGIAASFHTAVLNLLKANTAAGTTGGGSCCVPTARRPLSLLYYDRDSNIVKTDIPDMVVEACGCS

activin C = target: T10, activin C (UniProt P55103 237-352); assay: as above
T10 sequence (looked up): T9 sequence (looked up) 2

BMP9 [9] = target: T11, BMP9 (UniProt Q9UK05 320-429); assay: as above
T11 construct: also called GDF2
T11 sequence (looked up): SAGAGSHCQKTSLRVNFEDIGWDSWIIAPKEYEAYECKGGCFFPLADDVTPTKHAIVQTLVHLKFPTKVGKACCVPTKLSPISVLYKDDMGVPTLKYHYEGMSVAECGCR

BMP10 [10] = target: T4, BMP10; assay: SPR (Biacore), Fc fusion captured by anti-Fc antibody, 37 C
activin A [11] = target: T6, activin A; assay: as above
BMP6 [12] = target: T3, BMP6; assay: as above
BMP10 [13] = target: T4, BMP10; assay: as above; remark: listed apart in the source
GDF11 [14] = target: T1, GDF11; assay: as above
GDF8 [15] = target: T5, GDF8; assay: as above
activin A [16] = target: T6, activin A; assay: as above; remark: listed apart in the source
activin B [17] = target: T7, activin B; assay: as above
GDF3 [18] = target: T8, GDF3; assay: as above
BMP9 [19] = target: T11, BMP9; assay: as above

binding result (GDF11 [1]): binds
B1: ActRIIB-Fc with C-terminal tail (A64 background) (Fc fusion)
chain: SGRGEAETRECIYYNANWELERTNQSGLERCEGEQDKRLHCYASWANSSGTIELVKKGCWLDDFNCYDRQECVATEENPQVYFCCCEGNFCNERFTHLPEAGGPEVTYEPPPTAPTGGGTHTCPPCPAPELLGGPSVFLFPPKPKDTLMISRTPEVTCVVVDVSHEDPEVKFNWYVDGVEVHNAKTKPREEQYNSTYRVVSVLTVLHQDWLNGKEYKCKVSNKALPVPIEKTISKAKGQPREPQVYTLPPSREEMTKNQVSLTCLVKGFYPSDIAVEWESNGQPENNYKTTPPVLDSDGSFFLYSKLTVDKSRWQQGNVFSCSVMHEALHNHYTQKSLSLSPGK
notes: Alanine at position 64; also called preferred version of ActRIIB-Fc

Kd (BMP5): 57 nM
koff (BMP5): 0.0085 s⁻¹
kon (BMP5): 150000 M⁻¹ s⁻¹
Kd (BMP6 [2]): 5.3 nM
koff (BMP6 [2]): 0.0063 s⁻¹
kon (BMP6 [2]): 1.2e+06 M⁻¹ s⁻¹
Kd (BMP10 [3]): 0.19 nM
koff (BMP10 [3]): 0.0028 s⁻¹
kon (BMP10 [3]): 1.5e+07 M⁻¹ s⁻¹
Kd (GDF11 [4]): 0.008 nM
koff (GDF11 [4]): 0.00075 s⁻¹
kon (GDF11 [4]): 9.5e+07 M⁻¹ s⁻¹
Kd (GDF8 [5]): 0.27 nM
koff (GDF8 [5]): 0.001 s⁻¹
kon (GDF8 [5]): 3.7e+06 M⁻¹ s⁻¹
Kd (activin A [6]): 0.043 nM
koff (activin A [6]): 0.0019 s⁻¹
kon (activin A [6]): 4.4e+07 M⁻¹ s⁻¹
Kd (activin B [7]): 0.017 nM
koff (activin B [7]): 0.0002 s⁻¹
kon (activin B [7]): 1.2e+07 M⁻¹ s⁻¹
Kd (GDF3 [8]): 4.5 nM
koff (GDF3 [8]): 0.01 s⁻¹
kon (GDF3 [8]): 2.3e+06 M⁻¹ s⁻¹
Kd (activin AC): 0.22 nM
koff (activin AC): 0.00057 s⁻¹
kon (activin AC): 2.6e+06 M⁻¹ s⁻¹
Kd (activin C): 6.9 nM
koff (activin C): 0.0024 s⁻¹
kon (activin C): 350000 M⁻¹ s⁻¹
Kd (BMP9 [9]): > 1.4 nM
B2: ActRIIB-Fc:ALK7-Fc heterodimer (Fc fusion)
chain 1: GRGEAETRECIYYNANWELERTNQSGLERCEGEQDKRLHCYASWRNSSGTIELVKKGCWLDDFNCYDRQECVATEENPQVYFCCCEGNFCNERFTHLPEAGGPEVTYEPPPTAPT
chain 2: ELSPGLKCVCLLCDSSNFTCQTEGACWASVMLTNGKEQVIKSCVSLPELNAQVFCHSSNNVTKTECCFTDFCNNITLHLPTASPNAPKLGPME

fold faster off-rate than ActRIIB-Fc homodimer (BMP10 [10]): ~10 fold
fold faster off-rate than ActRIIB-Fc homodimer (activin A [11]): ~10 fold
Kd (BMP6 [12]): 0.056 nM
koff (BMP6 [12]): 0.018 s⁻¹
kon (BMP6 [12]): 3.3e+08 M⁻¹ s⁻¹
Kd (BMP10 [13]): 0.042 nM
koff (BMP10 [13]): 0.002 s⁻¹
kon (BMP10 [13]): 4.8e+07 M⁻¹ s⁻¹
Kd (GDF11 [14]): 0.009 nM
koff (GDF11 [14]): 0.00036 s⁻¹
kon (GDF11 [14]): 4e+07 M⁻¹ s⁻¹
Kd (GDF8 [15]): 0.15 nM
koff (GDF8 [15]): 0.0005 s⁻¹
kon (GDF8 [15]): 3.4e+06 M⁻¹ s⁻¹
Kd (activin A [16]): 0.17 nM
koff (activin A [16]): 0.0015 s⁻¹
kon (activin A [16]): 8.8e+06 M⁻¹ s⁻¹
Kd (activin B [17]): 0.025 nM
koff (activin B [17]): 0.00021 s⁻¹
kon (activin B [17]): 8.3e+06 M⁻¹ s⁻¹
Kd (GDF3 [18]): 10 nM
koff (GDF3 [18]): 0.0059 s⁻¹
kon (GDF3 [18]): 580000 M⁻¹ s⁻¹
Kd (BMP9 [19]): > 2.8 nM
B3: ActRIIB-Fc:ActRIIB(L79E)-Fc heterodimer (Fc fusion)
chain 1: B2 chain 1
chain 2: B2 chain 1 with L60E
